Data reported in US8298798B2, “Production of C5-C8 alcohols using evolved enzymes and metabolically engineered microorganisms” (The Regents of the University of California, priority 2008, dated 2012).
Converted amounts (≈) assume the structure as drawn.

How the values were obtained:
F381L/V461A KIVD = F381L/V461A KIVD (Lactococcus lactis, UniProt A0A0B8QZ66, form not given/V461A); test: coupled enzymatic assay of KIVD decarboxylation activity; format: biochemical; details: for kcat: substrate of V461A/F381L KIVD, 30° C., pH 6.8
Excerpt: (§1) Protein Expression and Purification. Both gene fragments encoding wild type and F381L/V461A KIVD were amplified from plasmid pZE_LeuABCDKA6 using primers hiskivd_tevfwd and hiskivd_bamrev. After digestion with BamHI, the gene fragments were inserted into expression plasmid pQE9 (Qiagen) to yield pQE_hiskivd_wt and pQE_hiskivd_FL. The ADH6 gene fragment was amplified from yeast genomic DNA using primers hisadh_tevfwd and hisadh_bamrev, digested with BamHI and inserted into pQE9 to generate pQE_hisadh6. Similarly, genes encoding G462D and G462D/S139G LeuA were amplified from plasmid pZE_LeuABCDKA6 using primers hisleua_tevfwd and hisleua_bamrev. After digestion with BamHI, the PCR products were ligated into pQE9 to create pQE_hisleua_GD and pQE_hisleua_GS. The resulting expression plasmids pQE_hiskivd_wt, pQE_hiskivd_FL, pQE_hisadh6, pQE_hisleua_GD and pQE_hisleua_GS were transformed into E. coli strain BL21(DE3) harboring pREP4 (Qiagen). Cells were inoculated from an overnight pre-culture at 1/100 dilution and grown in 200 ml 2XYT rich medium containing 50 mg/L ampicillin and 25 mg/L kanamycin. At an OD600 of 0.6, recombinant proteins were expressed by induction of the cell cultures with 0.1 mM IPTG, followed by incubation at 30° C. overnight. Cell pellets were lysed by sonication in a buffer containing 250 mM NaCl, 2 mM DTT, 5 mM imidazole, and 50 mM Tris pH 9.0. By applying a stepwise gradient of imidazole (up to 250 mM), enzymes were purified from crude cell lysates through Ni-NTA column chromatography. The fractions of highest purity were pooled and buffer-exchanged using Amicon Ultra centrifugal filters (Millipore). Storage buffer 1 ([…], pH 8.0, 1 mM MgSO4, and 20% glycerol) was used for LeuA and ADH6, and storage buffer 2 ([…], pH 8.0, 1 mM MgSO4, 0.2 mM ThDP, and 20% glycerol) was used for KIVD. The concentrated protein solutions were aliquoted (100 μl) into PCR tubes and flash frozen at −80° C. for long term storage.
(§2) Enzymatic Assay of KIVD. Substrate 2-ketoisovalerate (KIV) was purchased from Sigma-Aldrich, and (S)-2-keto-4-methylhexanoate (KHV) was custom synthesized by AsisChem. Inc. Protein concentration was determined by measuring UV absorbance at 280 nm. The decarboxylation activity of KIVD was measured at 30° C. using a coupled enzymatic assay method. Excess ADH6 was used to reduce aldehyde into alcohol, and concomitantly, cofactor NADPH was oxidized to NADP+. The assay mixture contained 0.2 mM NADPH, 0.1 μM ADH6 and 0.1-20 mM 2-keto acids in assay buffer (50 mM potassium phosphate buffer, pH 6.8, 1 mM MgSO4, 0.5 mM ThDP) with a total volume of 0.2 mL. The reactions were started by adding 2 μl KIVD (final concentration: for KIV, 20 nM wt KIVD, 200 nM F381L/V461A KIVD; for KHV, 50 nM both), and the consumption of NADPH was monitored at 340 nm (extinction coefficient, 6.22 mM^−1 cm^−1). Kinetic parameters (kcat and Km) were determined by fitting initial velocity data to the Michaelis-Menten equation using Origin.

wild type KIVD = wild type KIVD (Lactococcus lactis, UniProt A0A0B8QZ66); test: as above; format: biochemical; details: for kcat: substrate of Wild type KIVD, 30° C., pH 6.8
Excerpt: as §1, §2

[1] = cited from earlier work
G462D LeuA = target: T1, G462D LeuA (Escherichia coli, UniProt P09151, G462D); test: measurement of LeuA activity (DTNB); format: biochemical, E. coli; details: for kcat: substrate of G462D LeuA, 30° C., pH 8.0
T1 construct: His tag (pQE9 vector, Ni-NTA purified) (N); TEV protease site (ENLYFQG, encoded by the forward primer) (N); made in house; host or cells: E. coli BL21(DE3) harboring pREP4
T1 sequence (P09151 whole entry G462D): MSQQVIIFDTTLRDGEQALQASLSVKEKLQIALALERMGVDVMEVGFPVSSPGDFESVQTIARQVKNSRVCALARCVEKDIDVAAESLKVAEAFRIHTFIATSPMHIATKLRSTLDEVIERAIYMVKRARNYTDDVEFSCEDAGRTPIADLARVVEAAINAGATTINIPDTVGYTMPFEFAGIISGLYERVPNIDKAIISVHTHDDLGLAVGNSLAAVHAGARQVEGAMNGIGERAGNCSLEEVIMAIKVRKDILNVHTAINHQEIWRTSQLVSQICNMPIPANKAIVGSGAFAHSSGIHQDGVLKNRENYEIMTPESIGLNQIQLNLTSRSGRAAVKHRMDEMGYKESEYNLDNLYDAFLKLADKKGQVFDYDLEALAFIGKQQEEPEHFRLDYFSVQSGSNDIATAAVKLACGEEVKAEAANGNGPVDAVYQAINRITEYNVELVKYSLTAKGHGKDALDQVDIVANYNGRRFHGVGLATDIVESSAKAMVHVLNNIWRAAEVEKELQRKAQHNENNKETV
Excerpt: as §1
(§3) Measurement of LeuA activity. The assay mixture contained 100 mM KCl, 2 mM MgCl2, 1 mM acetyl-CoA, and 100 mM Tris pH 8.0 with a total volume of 100 μl. 100 nM G462D or G462D/S139G LeuA was reacted with 2-ketoisovalerate in a concentration range from 25 μM to 1 mM for 10 minutes at 30° C. While 4 μM G462D or 1.5 μM G462D/S139G LeuA was reacted with (S)-2-keto-3-methylvalerate in a concentration range from 50 μM to 2 mM for 30 minutes at 30° C. The reactions were stopped by adding 0.3 ml of ethanol. Then 0.2 ml of a fresh 1 mM solution of 5,5′-Dithio-Bis (2 Nitrobenzoic Acid) in 100 mM Tris buffer pH 8.0 was added, and the yellow color product was measured at 412 nm. The values obtained were corrected for unspecific hydrolysis by subtracting the absorbance of controlled samples without addition of 2-keto acids. A molar extinction coefficient of 13,600 M^−1 cm^−1 was used in the final calculations.

G462D/S139G LeuA = target: T2, G462D/S139G LeuA (Escherichia coli, UniProt P09151, G462D/S139G); test: measurement of LeuA activity (DTNB); format: biochemical, E. coli
T2 construct: His tag (pQE9 vector, Ni-NTA purified) (N); TEV protease site (ENLYFQG, encoded by the forward primer) (N); made in house; host or cells: E. coli BL21(DE3) harboring pREP4
T2 sequence (P09151 whole entry S139G/G462D): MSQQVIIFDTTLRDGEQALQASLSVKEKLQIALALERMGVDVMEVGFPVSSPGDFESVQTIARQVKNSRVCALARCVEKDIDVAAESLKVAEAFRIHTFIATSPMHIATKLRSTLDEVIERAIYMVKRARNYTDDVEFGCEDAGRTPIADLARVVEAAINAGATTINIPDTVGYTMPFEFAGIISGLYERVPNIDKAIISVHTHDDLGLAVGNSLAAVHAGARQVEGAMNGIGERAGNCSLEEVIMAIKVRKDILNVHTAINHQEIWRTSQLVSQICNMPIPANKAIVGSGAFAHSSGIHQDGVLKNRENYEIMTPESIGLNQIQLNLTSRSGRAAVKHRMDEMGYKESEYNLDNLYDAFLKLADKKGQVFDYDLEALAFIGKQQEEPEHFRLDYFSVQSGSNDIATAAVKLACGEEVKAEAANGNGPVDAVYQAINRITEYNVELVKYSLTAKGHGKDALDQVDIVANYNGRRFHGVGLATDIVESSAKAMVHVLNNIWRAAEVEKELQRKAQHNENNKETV
Excerpt: as §1, §3

CC[C@H](C)C(=O)C(=O)O = test: measurement of LeuA activity (DTNB); format: biochemical, E. coli; details: 30° C., pH 8.0
Excerpt: as §1, §3

CC(C)C(=O)C(=O)O = test: measurement of LeuA activity (DTNB); format: biochemical, E. coli; details: 30° C., pH 8.0
Excerpt: as §1, §3

[2] = substrate: CC(C)C(=O)C(=O)O; test: coupled enzymatic assay of KIVD decarboxylation activity; format: biochemical, Lactococcus lactis; details: other: substrate of Wild type KIVD, 30° C., pH 6.8
Excerpt: as §1, §2

[3] = substrate: CC[C@H](C)CC(=O)C(=O)O; test: as above; format: biochemical, Lactococcus lactis; details: other: substrate of Wild type KIVD, 30° C., pH 6.8
Excerpt: as §1, §2

[4] = other: substrate of G462D/S139G LeuA

With CC[C@H](C)CC(=O)C(=O)O [(S)-2-keto-4-methylhexanoate] the “specificity constant kcat/Km relative to that towards 2-ketoisovalerate” value (F381L/V461A KIVD; F381L/V461A KIVD) was 40 fold, the kcat (F381L/V461A KIVD) was 3.0 ± 0.1 s⁻¹ and the kcat (F381L/V461A KIVD; listed as 2-keto-4-methylhexanoate) was 3.0 s⁻¹. For the same molecule, the kcat (wild type KIVD) was 10.8 s⁻¹ and the “specificity constant kcat/Km relative to that towards 2-ketoisovalerate” value (wild type KIVD; wild type KIVD) was 4 fold.

For CCCCCCCO [1-heptanol], the water solubility [1] is given as 1.2 mg/mL (≈ 10.3 mM).

For CC(C)C(=O)C(=O)O [2-Ketoisovalerate], the kcat (G462D LeuA) was 6.0 s⁻¹, the kcat (F381L/V461A KIVD) was 2.7 ± 0.6 s⁻¹ and the kcat (F381L/V461A KIVD; listed as 2-ketoisovalerate) was 2.7 s⁻¹. It also gave a kcat (wild type KIVD) of 38.3 s⁻¹.

In the case of CC[C@H](C)C(=O)C(=O)O [(S)-2-keto-3-methylvalerate], the “kcat, fold less than that for 2-ketoisovalerate” value (G462D LeuA; G462D LeuA) is reported as 333 fold, the kcat (G462D LeuA) is reported as 0.018 s⁻¹ and the “increase of kcat by the S139G mutation” value (G462D/S139G LeuA; G462D/S139G versus G462D LeuA) is reported as 7 fold. The kcat (G462D/S139G LeuA; substrate of G462D/S139G LeuA, 30° C., pH 8.0) was 0.12 s⁻¹.

For “G462D/S139G LeuA (Escherichia coli K-12; G462D/S139G)”, the Km (CC[C@H](C)C(=O)C(=O)O; [4]) was 144 ± 13 µM, the kcat (CC[C@H](C)C(=O)C(=O)O; [4]) was 0.12 ± 0.02 s⁻¹ and the kcat/Km (CC[C@H](C)C(=O)C(=O)O; [4]) was 830 M⁻¹ s⁻¹. The Km (CC(C)C(=O)C(=O)O; [4]) was 104 ± 5 µM, the kcat (CC(C)C(=O)C(=O)O; [4]) was 2.1 ± 0.1 s⁻¹ and the kcat/Km (CC(C)C(=O)C(=O)O; [4]) was 20000 M⁻¹ s⁻¹.

For CCCCCO [1-Pentanol], the water solubility [1] is listed as 23 mg/mL (≈ 261 mM).

In the case of “G462D LeuA (Escherichia coli K-12; G462D)”, the Km (CC[C@H](C)C(=O)C(=O)O; other: substrate of G462D LeuA) is reported as 55 µM, the kcat (CC[C@H](C)C(=O)C(=O)O; other: substrate of G462D LeuA) is reported as 0.018 ± 0.001 s⁻¹ and the kcat/Km (CC[C@H](C)C(=O)C(=O)O; other: substrate of G462D LeuA) is reported as 330 M⁻¹ s⁻¹. The Km (CC(C)C(=O)C(=O)O; other: substrate of G462D LeuA) was 182 µM, the kcat (CC(C)C(=O)C(=O)O; other: substrate of G462D LeuA) was 6.0 ± 0.3 s⁻¹ and the kcat/Km (CC(C)C(=O)C(=O)O; other: substrate of G462D LeuA) was 33000 M⁻¹ s⁻¹.

B1: wild type KIVD (Lactococcus lactis subsp. lactis) (protein)
chain: MYTVGDYLLDRLHELGIEEIFGVPGDYNLQFLDQIISRKDMKWVGNANELNASYMADGYARTKKAAAFLTTFGVGELSAVNGLAGSYAENLPVVEIVGSPTSKVQNEGKFVHHTLADGDFKHFMKMHEPVTAARTLLTAENATVEIDRVLSALLKERKPVYINLPVDVAAAKAEKPSLPLKKENSTSNTSDQEILNKIQESLKNAKKPIVITGHEIISFGLEKTVSQFISKTKLPITTLNFGKSSVDEALPSFLGIYNGKLSEPNLKEFVESADFILMLGVKLTDSSTGAFTHHLNENKMISLNIDEGKIFNESIQNFDFESLISSLLDLSEIEYKGKYIDKKQEDFVPSNALLSQDRLWQAVENLTQSNETIVAEQGTSFFGASSIFLKPKSHFIGQPLWGSIGYTFPAALGSQIADKESRHLLFIGDGSLQLTVQELGLAIREKINPICFIINNDGYTVEREIHGPNQSYNDIPMWNYSKLPESFGATEERVVSKIVRTENEFVSVMKEAQADPNRMYWIELILAKEDAPKVLKKMGKLFAEQNKS
Work on B1 yielded a Km [2] of 2200 µM, a kcat [2] of 38.3 ± 9.8 s⁻¹ and a kcat/Km [2] of 17000 M⁻¹ s⁻¹. It also gave a Km [3] of 140 µM, a kcat [3] of 10.8 ± 0.3 s⁻¹ and a kcat/Km [3] of 77000 M⁻¹ s⁻¹.
